The text below walks through data of publication PMC11813800, “A concept of natural genome reconstruction.Part 2. Effect of extracellular double-stranded DNA fragments on hematopoietic stem cells”.

One data set concerns the target CD34 (UniProt P28906 32-290). Kind of data set: EMSA; 10 mM PBS buffer, 37 °C, various ratios and times; native PAGE (6 % or 10 % tris-borate); pH not given. Particulars: label: P32; blunt. (In EMSA bound probe runs differently from free probe, usually more slowly.)
For a further data set, the target named is T1, SLAMF5 (CD84) (UniProt Q9UIB8 22-225).
T1 sequence: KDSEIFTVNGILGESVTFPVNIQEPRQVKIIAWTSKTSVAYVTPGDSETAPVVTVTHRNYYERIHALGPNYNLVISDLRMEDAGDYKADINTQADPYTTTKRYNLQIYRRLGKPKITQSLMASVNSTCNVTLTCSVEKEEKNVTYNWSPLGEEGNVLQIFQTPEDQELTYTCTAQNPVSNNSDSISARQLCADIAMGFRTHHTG
Described as above. Particulars: label: P32; blunt.

Chain of CD34 (P28906 32-290): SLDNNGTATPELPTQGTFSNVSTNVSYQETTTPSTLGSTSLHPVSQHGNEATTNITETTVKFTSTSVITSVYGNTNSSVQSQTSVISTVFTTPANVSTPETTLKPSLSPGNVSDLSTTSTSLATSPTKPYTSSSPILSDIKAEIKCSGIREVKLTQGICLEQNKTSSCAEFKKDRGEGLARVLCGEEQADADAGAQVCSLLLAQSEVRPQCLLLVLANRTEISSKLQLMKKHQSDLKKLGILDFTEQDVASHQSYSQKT

B1: (TTAGGG)9 telomeric repeat, 54 bp (dsDNA)
DNA 1: TTAGGGTTAGGGTTAGGGTTAGGGTTAGGGTTAGGGTTAGGGTTAGGGTTAGGG
DNA 2: CCCTAACCCTAACCCTAACCCTAACCCTAACCCTAACCCTAACCCTAACCCTAA
For B1, the binding result with CD34 and in the data set with SLAMF5 (CD84) was “binds” each time.
